No end group written: not given here.

These results are taken from US20210162067A1, “Composition and Methods of Controllable Co-Coupling Polypeptide Nanoparticle Delivery System for Nucleic Acid Therapeutics” (SIRNAOMICS, INC., priority 2018, published 2021).

The series is classed as physicochemical. Here is the method:
The structure of the HKC2 was characterized by HPLC and mass spectroscopy, and a major peak at retention time at 8.053 min with a purity 90.0% was observed by RPHPLC. In the ESI-MS spectrum (FIG. 2B), a molecular ion peak was observed as double charged ion [M+2H]^2+. Similarly, triple charged, 4+ and 5+ species were also observed. It provided a molecular weight of 2683 Da, which is in good agreement with the theoretical value. […] This is a plus for its formulation with the siRNA in aqueous medium.

With “K(HHHK)4CSSC (KHHHKHHHKHHHKHHHKCSSC; also: branched peptide, cross-linked through intermolecular disulfide bonds between cysteines into polymer (HKC2))”, the solubility in water entry was “readily soluble in water”.
